Earlier results, collected in patent US6440936B2, “Anti-protozoan methods and materials” (Xoma Corporation, priority 1994, dated 2002).

B1: BPI: protein isolated from the granules of mammalian polymorphonuclear neutrophils; human BPI approximately 55 kD (protein, UniProt P17213 32-487, looked up)
Bactericidal …: VNPGVVVRISQKGLDYASQQGTAALQKELKRIKIPDYSDSFKIKHLGKGHYSFYSMDIREFQLPSSQISMVPNVGLKFSISNANIKISGKWKAQKRFLKMSGNFDLSIEGMSISADLKLGSNPTSGKPTITCSSCSSHINSVHVHISKSKVGWLIQLFHKKIESALRNKMNSQVCEKVTNSVSSELQPYFQTLPVMTKIDSVAGINYGLVAPPATTAETLDVQMKGEFYSENHHNPPPFAPPVMEFPAAHDRMVYLGLSDYFFNTAGLVYQEAGVLKMTLRDDMIPKESKFRLTTKFFGTFLPEVAKKFPNMKIQIHVSASTPPHLSVQPTGLTFYPAVDVQAFAVLPNSSLASLFLIGMHTTGSMEVSAESNRLVGELKLDRLLLELKHSNIGPFPVELLQDIMNYIVPILVLPRVNEKLQKGFPLPTPARVQLYNVVLQPHQNFLLFGADVVYK

Assays:
[1] = system: T. gondii; conditions: 0.25 μg/ml in cyst medium
[2] = system: Staphylococcus aureus (four strains), Staphylococcus epidermidis, Streptococcus faecalis, Bacillus subtilis, Micrococcus lysodeikticus, Listeria monocylogenes; conditions: 10^−6 M or 160 μg/ml; pH 7.0 or 5.5
[3] = system: human, rabbit and sheep red blood cells and several human tumor cell lines
[4] = system: Candida albicans and Candida parapsilosis; conditions: 10^−6 M; Ph 7.0 or 5.5

Molecule | anti-T. gondii effect [1] | toxic effect on gram-positive organisms [2] | toxicity to higher eukaryotic cells [3] | toxic effect on fungi [4]
C[C@@H]1[C@H](O)[C@@H](C)/C=C/C=C/C=C/C=C/C=C/C=C/C=C/[C@H](O[C@@H]2O[C@H](C)[C@@H](O)[C@H](N)[C@@H]2O)C[C@@H]2O[C@](O)(C[C@@H](O)C[C@@H](O)[C@H](O)CC[C@@H](O)C[C@@H](O)CC(=O)O[C@H]1C)C[C@H](O)[C@H]2C(=O)O [Amphotericin B] | does not have a significant anti-T. gondii effect | – | – | –
B1 | – | no toxic effect | non-toxic | no toxic effect
